The values below come from the RNAGym collection of RNA variant scans (doi:10.1073/pnas.2313332121).

B1: TPR 5TU (parent)
chain: GGAUCUUCUCGAUCUAACAAAAAAGACAAAUCUGCCACAAAGCUUGAGAGCAUCUUCGGAUGCAGAGGCGGCAGCCUUCGGUGGCGCGAUAGCGCCAACGUUCUCAACUAUGACACGCAAAACGCGUGCUCCGUUGAAUGGAGUUUAUCAUG

This sample holds only a part of the variants without activity.

This data set covers variants of B1. Description: polymerase ribozyme fitness, log enrichment relative to wild type (log ratio); higher = more active; in vitro selection for triplet polymerase activity. In short, it runs like this: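 PCR was used to build mutant libraries for each subunit of a heterodimeric triplet polymerase ribozyme, which were then transcribed. A single in vitro selection round, in triplicate, used a frozen incubation at −7 °C and recovered extended constructs by gel excision, streptavidin beads and RT-PCR. Fitness is the logarithm of genotype enrichment relative to wild-type enrichment, averaged over replicates with inverse-variance weights. The logarithm is base 2, and after Illumina sequencing only genotypes with ≥10 input reads and ≥1 read per output were kept.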
Regarding GGAUCUUCUCGAUCUAACAAAAAAGACAAAUCUGCCACAAAGCAUGAGAGCAUCUUCGGAUGCAGAGGCGGCAGCCUUCGGGGGCGCGAUAGCGCCAACGUUCUCAACUAUGACACGCAAAACGCGUGCUCCGUUGAAUGGAGUUUAUCAUG, the “polymerase ribozyme fitness (log ratio)” value was no more than -4.2.

As for GGAUCUUCUCGAUCUAACAAAAAAGACAAAUCUGCCACAAAGCGUGAGAGCAUCUUUGGAUGCAGAGGCGGCAGCCUUCGGUGGCGCGAUUGCGCCAACGUUCUCAACCAUGACACGCAAAACGCGUGCUCCGUUGAAUGGAGUUUAUCAUG, the “polymerase ribozyme fitness (log ratio)” value is no more than -4.2.

As for GGAUCUUCUCGAUCUAACAAAAAAGACAAAUCUGCCACAAAGCUAGAGAGCAUCUUCGGAUGCAGGGGCGGCAGCCUUCAGUGGCGCGAUAGCGCCAACGUUCUCAACUAUGACACGCAAAACGCGUGCUCCGUUGAAUGGGGUUUAUCAUG, the “polymerase ribozyme fitness (log ratio)” value is no more than -4.2. GGAUCUUCUCGAUCUAACAAAAAAGACAAAUCUGCCACAAAGCCUGAGAGCAUCUACGGAUGCAGAGGCGGCAGCCUUCGGUGGCGCGAUAGCGCCAACGUUCUCAACUAUGACACGCAAAACGCGUGCUCCGUUGAAUGGAGUUUAUCAUG: the “polymerase ribozyme fitness (log ratio)” value is -3. As for GGAUCUUCUCGAUCUAACAAAAAAGACAAAUCUGCCACAAAGCAUGAGAGCAUCUUCGGAUGCAGAGGCGGCAGCCUUCGGCGGAGCGAUAGCGCCAACGUUCUCAACUAUGACACGCAAAACGCGUGCUCCGUUGAAUGGAGUUUAUCAUG, the figure is no more than -4.2.

In the case of GGAUCUUCUCGAUCUAACAAAAAAGACAAAUCUGCCACAAAGCGUGAGAGCAUCAUCGGAUGCAGAGGCGGCAGCCUUCGGUGGCGCGAUAGAGCCAACGUUCUCAACUAUGACACGCAGAACGCGUGCUCCGUUGAAUGGAGUUUAUCAUG, the “polymerase ribozyme fitness (log ratio)” value is no more than -4.2. Consider GGAUCUUCUCGAUCUAACAAAAAAGACAAAUCUGCCACAAAGCUAGAGAGCAUAUUCGGAUGCAGAGGCGGCAGCCUUCGGUGGCGCGAUAGCGCCAACGUUCUCAACUAUGACACGCAAAACGCGUGCUCCGUUGAAUGGAGUUUAUCAUG, for which the “polymerase ribozyme fitness (log ratio)” value is no more than -4.2.

Turning to GGAUCUUCUCGAUCUAACAAAAAAGACAAAUCUGCCACAAAGCUAGAGAGCAUUUUCGGAUGCAGAGGCGGCAGCCUUCGGUGGCGCGAUAGCGCCAACGUUCUCAACUAUGACACGCAAAACGCGUGCUCCGUUGAAUGGAGUUUAUCAUG, the “polymerase ribozyme fitness (log ratio)” value is -2.52. As for GGAUCUUCUCGAUCUAACAAAAAAGACAAAUCUGCCACAAAGCCUGAGAGCAUCUUCGGAUGCAGAGGCGGCAGCCUUCGGUGGCGCGAUAGCGCCAGCGUUCUCAACUAUGACACGCAAAACGCGUGCUCCGUUGAAUGGAGUUUAUCAUG, the figure is -3.97. As for GGAUCUUCUCGAUCUAACAAAAAAGACAAAUCUGCCACAAAGCCUGAGAGUAUCUUCGGAUGCAGAGGCGGCAGCCUUCGGUGGCGCGAUAUCGCGAACGUGCUCAACUAUGACACGCAAAACGCGUCCUCCGUUGAAUGGAGUUUAUCAUG, the figure is no more than -4.2. As for GGAUCUUCUCGAUCUAACAAAAAAGACAAAUCUGCCACAAAGCUAGAGAGCUUCUUCGGAUGCAGAGGCGGCAGCCUUCGGUGGAGCGAUAGCGCCAACGUUCUCAACUAUGACACGCAAAACGCGUGCUCCGUUGAAGGGAGUUUAUCAUG, the figure is no more than -4.2; as for GGAUCUUCUCGAUCUAACAAAAAAGACAAAUCUGCCACAAAGCUAGAGAGCAUCUUCGGAUGCAGAGGCGGCAGCCUUCGGUGGCGCGAUAGCGCCAACGUUCUCAACUAUGACACGCAAAACGCGUGCUCCGUUGAAUGGAGUUUAUCAUG, -2.1. For the variant GGAUCUUCUCGAUCUAACAAAAAAGACAAAUCUGCCACAAAGCUAGAGUGCAUCUUCGGAUGCAGAGGCGGCAGACUUCGGUCGCGGGAUAGCGCCAACGUUCUCAACUAUGACACUCAAAACGCGAGCUCCGUUGAAAGGAGUUUAUCAUU, the “polymerase ribozyme fitness (log ratio)” value is no more than -4.2. On to GGAUCUUCUCGAUCUAACAAAAAAGACAAAUCUGCCACAAAGCGUGAGAGCAUCAUCGGAUGCAGAGGCGGCAGCCUUCGGUGGCGCGAUUGCGCCAACGUUCUCAACUAUGACACGCAAAACGCGUGCUCCGUUGAAUGCAGUUUAUCAUG, for which the “polymerase ribozyme fitness (log ratio)” value is no more than -4.2. As for GGAUCUUCUCGAUCUAACAAAAAAGACAAAUCUGCCACAAAGCUAGAGAGCAUCUUCGGAUGCAGAGGCGGCAGCCUUCGGUGGCGCGAUGGCGCCAACGUUCUCAACUAUGACACGCAAAACGCGUGCUCCGUUGAAUGGAGUUUAUCAUG, the figure is -4.12.

Regarding GGAUCUUCUCGAUCUAACAAAAAAGACAAAUCUGCCACAAAGCUAGAGAGCAUCUUCGGAUGCAGAGGCGGCAGCCUUCGGUGGCGCGAUUGCGCCAACGUUCUCAACUAUGACACGCAAAACGCGUGCUCCGUUGAAUGGAGUUUAUCAUG, the “polymerase ribozyme fitness (log ratio)” value is -3.74. With GGAUCUUCUCGAUCUAACAAAAAAGACAAAUCUGCCACAAAGCGUGAGAGCAUCUUCGGAUGCAGAGGCGGCAGCCUUCGGUGGCGCGAUACCGCCAACGUUCUCAACUAUGACACGCAAAACGCGUGCUCCGUUGAAUGGAGUUUAUCAUG, the “polymerase ribozyme fitness (log ratio)” value is no more than -4.2. As for GGAUCUUCUCGAUCUAACAAAAAAGACAAAUCUGCCACAAAGCGUGAGAGCAUCUUCGGAUGCAAAGACGGCAGCCUUCGGUGGCGCGAUAGCGCCAACGUUCUCAACUAUGACACGCAAAACGCGUGCUCCGUUGAAUGGAGUUUAUCAUG, the figure is no more than -4.2; as for GGAUCUUCUCGAUCUAACAAAAAAGACAAAUCUGCCACAAAGCUAGAGAGCAUCUUCGGAUGCAGAGGCGGCAGCCUUCGGUGGCGCGAUAGCGCCUACGUUCUCAACUAUGACACGCAAAACGCGUGCUCCGUUGAAUGGAGUUUAUCAUG, -2.84. Take GGAUCUUCUCGAUCUAACAAAAAAGACAAAUCUGCCACAAAGCAUGAGAGCAUCUACGGAUGCCGAGGCGGCAGCCUUCGGUGGCGCGAUUGCGCCAACGUUCUUAAGUCUGACACGCAAAACGCGUGCUCCGUGGAAUGGAGUUUAUCAUG: the “polymerase ribozyme fitness (log ratio)” value was no more than -4.2. On to GGAUCUUCUCGAUCUAACAAAAAAGACAAAUCUGCCACAAAGCUAGAGAGCCUCUUCGGAUGCAGAGGCGGCCGCCUUCGGUGGCGCGAUUGCGCCAACGCUCUCAACUAUGACACGCAAAACGCGUGCUCCGUUGAAUGGAGUUUAUCAUG, for which the “polymerase ribozyme fitness (log ratio)” value was no more than -4.2.

As for GGAUCUUCUCGAUCUAACAAAAAAGACAAAUCUGCCACAAAGCCUGAGAGCAUCUUCGGACGCGGAGGCGGCAGCCUUCGGUGGUGGGAUAGCGAGAAAGUUCUCAACUAUGACACGCAAAACGCGUGCUCCGUUAAAUGGAGUUUAUCAUG, the “polymerase ribozyme fitness (log ratio)” value is no more than -4.2.

GGAUCUUCUCGAUCUAACAAAAAAGACAAAUCUGCCACAAAGCGUGAAAGCAUCUUCGGAUGCAGAGGCGGCAGCCUUCGGUCGCGCGAUAGCGCCAACGUUCUCAACUAUGACACGCAAAACGCGUGCUCCGUUGAAUGGAGUUUAUCAUG: the “polymerase ribozyme fitness (log ratio)” value was no more than -4.2.

Take GGAUCUUCUCGAUCUAACAAAAAAGACAAAUCUGCCACAAAGCGUGAGAGCAUUUUCGGAUGCAGAGGCGGCAGCCUUCGGUGGCGUGAUUGCGCCAACGUUCUCAACUAUGACACGCAAAACGCGUGCUCCGUUGAAUGCACUUUAUCAUG: the “polymerase ribozyme fitness (log ratio)” value was no more than -4.2. Regarding GGAUCUUCUCGAUCUAACAAAAAAGACAAAUCUGCCACAAAGCCUGAGAGCAUCUUCGGAUGCAGAGGCGGCAGCCUUCGGUGGCGCGAUAGCGCCAACGUUCUCAACUAUGACACGCAAAACGCGUGCUCCGUUGAAUGGAGUUUAUCAUG, the “polymerase ribozyme fitness (log ratio)” value was -1.11.

Take GGAUCUUCUCGAUCUAACAAAAAAGACAAAUCUGCCACAAAGCGUGAGAGCAUCUUCGGAUGCAGAGGCGGCAGCCUUCGGUGGCGCGAUAGCGCCAACGUUCUCAACUAUGACACGCAAAACGCGUGCUCCGUUGAAUGGAGUUUAUCAUG: the “polymerase ribozyme fitness (log ratio)” value was -3.7.

GGAUCUUCUCGAUCUAACAAAAAAGACAAAUCUGCCACAAAGCUAGAGAGCAUCUUCGGAUGCAGUGGCGGCAGCUUUCGGUGGGGCGAUAGCGCCAACGUUCUCAACUAUGACACGCAAAACGCGUGAUCCGUUGAAUGGAGUUUAUCAUG: the “polymerase ribozyme fitness (log ratio)” value is no more than -4.2.

GGAUCUUCUCGAUCUAACAAAAAAGACAAAUCUGCCACAAAGCGUGAGAGCAUCUACGGAUGCAGAGGCGGCAGCCUUCGGUGGCGCGAUAGCGCCAACGUUCUCAACUAUGACACGCAAAACGCGUGCUCCGUUGAAUGGAGUUUAUCAUG: the “polymerase ribozyme fitness (log ratio)” value is -3.19. For the variant GGAUCUUCUCGAUCUAACAAAAAAGACAAAUCUGCCACAAAGCGGGAGAGCAUCUUCGGAUGCAGAGGCGGCAGCCUUCGGUGGCGCGAUAGCGCCCACGUUCUCAACUAUGACACGCAAAACGCGUGCUCCGUUGAAUGGAGUUUAUCAUG, the “polymerase ribozyme fitness (log ratio)” value is no more than -4.2. GGAUCUUCUCGAUCUAACAAAAAAGACAAAUCUGCCACAAAGCUAGAGAGCAUCUUCGGAUGCAGAGGCGGCAGCCUUCGGUGGCGCGAUAGCGCCAACGUUCUCCACUAUGACACGCAAAACGCGUGCUCCGUUGAAUGGAGUUUAUCAUG: the “polymerase ribozyme fitness (log ratio)” value is -0.488. As for GGAUCUUCUCGAUCUAACAAAAAAGACAAAUCUGCCACAAAGCUAGAGAGCAUCUUCGGAUGCAGAGGCGGGAGCCUUUGGUUGCGCGAUAGCGCCAACGUUCGCAACUAUGACACGCAAAACGCGUGCUCCGUUGAAUGGAGUUUAUCAUG, the figure is no more than -4.2; as for GGAUCUUCUCGAUCUAACAAAAAAGACAAAUCUGCCACAAAGCGAGCGAGCAUAUUUGGAAGCAGAGGCGGCAGCCUUCGGUGGCGCGAUAGUGCCAACGUUCUCAACUAUGACACGCAAAACGCGUGCUCCGUUGAAUGGAGUUUAUCAUG, no more than -4.2; as for GGAUCUUCUCGAUCUAACAAAAAAGACAAAUCUGCCACAAAGCUAGAGAGCAUCUUCGGCUGCAGAGGCGGCAGCCUUUGGUGGCGCGAUAGCGCCAAUGGUCUCAACUAUGACACGCAAAACGCGUGCUCCGUUUAAUGGAGUUUAUCAUG, no more than -4.2. For the variant GGAUCUUCUCGAUCUAACAAAAAAGACAAAUCUGCCACAAAGCUAGAGAGCAUCUUCGGGUGCAGCGCUGGCAGCCUUCGGUGGCGCGAUAGCGCCAACGUUCUCAACUAUGACACGCAAAACGCGUGCUCCGUUGAAUGGAGUUUAUCAUG, the “polymerase ribozyme fitness (log ratio)” value was no more than -4.2. Regarding GGAUCUUCUCGAUCUAACAAAAAAGACAAAUCUGCCACAAAGCUAGAGGGCAUCUUAGGAGGCAGAGUCGGCAGCCUUCGGUGGCGCGAUAGCGCCAACGUUCUCAACUAUGAUACGCAAAACGCGUGCUCCGUUGAAUGGAGUUUAUCUUG, the “polymerase ribozyme fitness (log ratio)” value was no more than -4.2. Consider GGAUCUUCUCGAUCUAACAAAAAAGACAAAUCUGCCACAAAGCCUGAGAGCAUCUUCGGAUGCAGAGGCGGCAGCCUUCGGUGGCGCGAUAGCGCCAACGUUCUCAACUAUGACACGCAAAACGCGUGCUCCGUUGAAUGGAGUUCAUCAUG, for which the “polymerase ribozyme fitness (log ratio)” value is -3.77. With GGAUCUUCUCGAUCUAACAAAAAAGACAAAUCUGCCACAAAGCUAGAGAGCAUCUUCGGAUGCAGAGGCGGCUGCCUUAGGUGGCGCGAUAGUGCCAACGUUCUCAACUAUGACACGCAAGACGCGUGCUCCGUUGAAUGGAGUUUAUCAUG, the “polymerase ribozyme fitness (log ratio)” value was no more than -4.2. GGAUCUUCUCGAUCUAACAAAAAAGACAAAUCUGCCACAAAGCUAGAGAGCAUCUUCGGAUGCAGAGGCGGCAGCAUUCGGUGGAGCGAUAGCGCCAACGUUCUCAACUAUGACACGCAAAACGCGUGCUCCGUUGAAUGGAGUUUAUCAUG: the “polymerase ribozyme fitness (log ratio)” value was no more than -4.2.
